Laboratory results reported in patent US20160326219A1, “OPTICALLY ACTIVATED RECEPTORS” (IST AUSTRIA (INSTITUTE OF SCIENCE AND TECHNOLOGY AUSTRIA), priority 2013, published 2016).

Tests used:
Format in all cases: cell-based, human
[1] = system: MAPK pathway; experiment: Stimulation and detection of MAPK signaling, PathDetect Elk1 luciferase reporter (HEK293 cells)
Protocol: For light stimulation of cells, an incubator (PT2499, ExoTerra/HAGEN, Holm, Germany) was equipped with 300 light emitting diodes (JS-FS505ORGB-W30 with JS-CON-004 controller, Komerci, Ebern, Germany; λmax˜630 nm (red), λmax˜530 nm (green), λmax˜470 nm (blue), bandwidth ˜±5 nm). Light intensity was controlled with an analog dimmer and measured with a digital power meter (PM120VA, Thorlabs, Munich, Germany). Intensities at maximal output were 2.3 (red), 2.6 (green) and 3.3 (blue light) W/m^2. For stimulation over extended time periods (>8 h), an aluminium box was equipped with the same light-emitting diodes and controller and placed in an incubator with standard tissue culture conditions (see below).
HEK293 cells and CHO-K1 (American Type Culture Collection (ATCC), Manassas, Va.) cells were maintained in DMEM supplemented with 10% FBS, 100 U/ml penicilin and 0.1 mg/ml streptomycin in a humidified incubator with 5% CO2 atmosphere. After trypsination, 5×10^4 cells were seeded in each well of 96-well plates (three to four wells for each construct) coated with poly-L-ornithine (Sigma, Vienna, Austria). Either transparent plates or black clear bottom plates were used. Cells were transfected using Lipofectamine 2000 (Invitrogen/LifeTech).
Phycocyanobilin (PCB; Livchem Logistics GmbH, Frankfurt a.M., Germany) was dissolved in a dark room to a stock concentration of 10 mM in DMSO. Aliquots were stored in the dark at −20° C. Prior to experiments, cells were incubated with 50 μM PCB overnight in reduced serum starve medium at 37° C. PCB could also be applied to applied to living animals as it is non-toxic even in high doses (0.17% of diet or 10 mg/kg) (McCarty (2007).
Activation of the MAPK pathway was assayed with the PathDetect Elk1 trans-Reporting System (Agilent) consisting of an Elk1 phosphorylation-dependent trans-activator and a luciferase-based trans-reporter. Cells were transfected with 213.3 ng total DNA per well (receptor, trans-activator and trans-reporter at ratio of 1:3:60 or 1:30:600) using Lipofectamine 2000. Six h after transfection medium was replaced with CO2-independent reduced serum starve medium (Gibco/Life Technologies; supplemented with 0.5% FBS, 2 mM L-Glutamine, 100 U/ml penicilin and 0.1 mg/ml streptomycin) for 18 h at 37° C. Cells were transferred and were either kept under constant illumination for 8 h or were protected from light. Chemical stimulation of imFGFR1 followed the same procedure, except that 10 nM AP20187 ((Clackson 1998); ARIAD Pharmaceuticals, Cambridge, Mass.) were added before transfer to the stimulation incubator. After incubation, plates were washed once with PBS and luciferase was detected with standard, off-the-shelf reagents. These were either Luciferase 1000 Assay System (Promega, Mannheim, Germany) in combination with a microplate reader equipped with an injector (Tecan Infinite 200 Pro, Maennedorf, Switzerland), or ONE-Glo Assay System (Promega) in combination with a microplate reader not equipped with an injector (BioTek Synergy H1). These assay systems provide equivalent results.

[2] = system: M38K cells; experiment: Gene expression analysis, qPCR (M38K cells)
Protocol: 5×10^4 M38K cells were seeded into each well of a 6-well plates. After 24 h, cells were illuminated with a cycle of 5 min light/15 min dark for 48 h. Control cells were kept in the dark. Total RNA was extracted with TRIZOL (LifeTechnologies) and reverse transcribed with MMLV reverse transcriptase (Thermo Scientific). cDNAs corresponding to 50 ng RNA per sample were subjected to SYBR green qPCR on an Abi Prism 7500 Sequence Detection System using published primers (cf. Sakuma, 2012; #2508). GAPDH was used for normalization and fold change of expression level was calculated as 2-ddCt of illuminated versus non-illuminated cells.

[3] = system: SPC212 cells; experiment: Stimulation and Western blot (SPC212 cells); conditions: ~3 μW/mm^2
Excerpt: (§1) M38K and SPC212, two malignant pleural mesothelioma cell lines, were maintained in RPMI1640 supplemented with 10% FBS. Telomerase-immortalized microvascular hBE cells were maintained in Clonetics EGM2 MV endothelial growth medium (Lonza, Wakersville, Md.) supplemented with 5% FBS. For retrovirus generation, Opto-mFGFR1 or mCherry as control was subcloned into pQCXIP (Clontech, Mountain View, Calif.) using EcoRI and NotI restriction enzymes. Viral particles were generated in HEK293 cells by co-transfection with the helper plasmids pVSV-G and p-gag-pol-gpt. Supernatants were used to transduce M38K, SPC212 or hBE cells grown to 50% confluency in 6-well plates. Cells were selected with 0.8 μg/ml puromycin for 10 d and transgene expression was verified by immunoblotting.
(§2) For immunoblotting, 5×10^5 cells were seeded in each well of 6-well plates. After 24 h, medium was replaced with reduced serum medium (M38K, SPC212). After additional 20 h, cells were transferred to the stimulation incubator and illuminated for 1, 5 or 15 min or shielded from light. Cells were then either immediately or after additional 5, 15 or 30 min in the dark washed and lysed in 50 μl lysis buffer per well on ice. Lysates were sonicated and centrifuged (12000 g, 5 min, 4° C.). […] Chemiluminescence was developed with WesternC reagent (Biorad, Hercules, Calif.) and signals recorded on X-ray film (GE Healthcare).

[4] = system: M38K cells; experiment: Stimulation and Western blot (M38K cells); conditions: ~3 μW/mm^2
Excerpt: as §1, §2

[5] = system: M38K cells; experiment: Cell proliferation, EdU incorporation (M38K cells)
Protocol: 2×10^4 M38K cells were seeded in each well of 96-well plates. After 24 h, cells were stimulated for 1 h or kept in the dark. FGF2 (Sigma, St. Louis, Mo.) was added as indicated. After 24 h, cells were incubated with 10 μM EdU for 2 h. Subsequently, newly synthesized DNA was stained with Click-iT EdU (Life Technologies) following the manufacturer's protocol and counterstained with 5 μg/ml Hoechst dye. Cells were photographed on a Nikon Ti300 inverted microscope. To determine the percentage of cells with newly synthesized DNA, Hoechst positive nuclei and EdU positive nuclei were counted.

B1: Opto-mFGFR1: chimeric receptor of mFGFR1 intracellular domain and VfAU1-LOV, SEQ ID NO: 58 (protein)
chain: MGSSKSKPKDPSQRLDMKSGTKKSDFHSQMAVHKLAKSIPLRRQVTVSADSSASMNSGVLLVRPSRLSSSGTPMLAGVSEYELPEDPRWELPRDRLVLGKPLGEGCFGQVVLAEAIGLDKDKPNRVTKVAVKMLKSDATEKDLSDLISEMEMMKMIGKHKNIINLLGACTQDGPLYVIVEYASKGNLREYLQARRPPGLEYCYNPSHNPEEQLSSKDLVSCAYQVARGMEYLASKKCIHRDLAARNVLVTEDNVMKIADFGLARDIHHIDYYKKTTNGRLPVKWMAPEALFDRIYTHQSDVWSFGVLLWEIFTLGGSPYPGVPVEELFKLLKEGHRMDKPSNCTNELYMMMRDCWHAVPSQRPTFKQLVEDLDRIVALTSNQEYLDLSIPLDQYSPSFPDTRSSTCSSGEDSVFSHEPLPEEPCLPRHPTQLANSGLKRRVETGPDYSLVKALQMAQQNFVITDASLPDNPIVYASRGFLTLTGYSLDQILGRNCRFLQGPETDPRAVDKIRNAITKGVDTSVCLLNYRQDGTTFWNLFFVAGLRDSKGNIVNYVGVQSKVSEDYAKLLVNEQNIEYKGVRTSNMLRRKTGGSGVDYPYDVPDYALD
modifications: mFGFR1-VfAU1-LOV
[1]; HEK293 cells expressing the fusion protein (LOV domain fused to RTK intracellular domain), ~3 μW/mm^2
  MAPK pathway activation in response to blue light: activated the MAPK pathway similarly to imFGFR1
[1]; HEK293 cells, control experiment
  MAPK pathway activation in response to green light or red light: no effect
[1]; I472V, HEK293 cells, FIG. 5c
  Activation by blue light after reducing the lifetime of VfAU1-LOV ~8-fold by mutation: reduces Opto-mFGFR1 activation
[1]; kinase dead (Y271F, Y272F), HEK293 cells
  MAPK pathway activation in response to blue light after loss of kinase activity: no effect
[1]; low intensity blue light
  Blue light intensity at which activated: ~3 μW/mm^2
[2]
  Gene expression changes upon light stimulation: EMT-like gene expression changes
[3]
  Phosphorylation upon blue light stimulation: rapid phosphorylation of Opto-mFGFR1 and ERK1/2 as well as AKT and phospholipase Cy (PLCy)
[4]
  Phosphorylation upon blue light stimulation: rapid phosphorylation of Opto-mFGFR1 and ERK1/2
[5]
  Proliferation (% of nuclei incorporating 5-ethynyl-2'-deoxyuridine) upon light stimulation: increased proliferation
